# B1: CLPTM1 (parent)
# chain: MNLHVYISEHEHFTDFNATSALFW
# B2: VDR (parent)
# chain: LIKFQVGLKKLNLHEEEHVLLMAI
# Variants of: B1
# Assay: protein stability index of a GFP-peptide fusion (GPS, HEK-293T) (PSI 1-6); higher = more stable
# Conditions: c terminus: a fixed tail appended
# 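Also: lentivirally expressed fusions sorted by FACS into six bins by GFP to DsRed ratio, PSI derived from sequencing read proportions per bin multiplied by bin number.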
row,Variant,protein stability index
1,MNLHVYISEHEHFTDFNKTSALFW,4.8
2,MNLHVYISEHEHFTDFNGTSALFW,3.77
3,MNLHVYISEHEHFTDFNMTSALFW,4.1
4,MNLHVYISEHEHFTDFNFTSALFW,4.2
5,MNLHVYISEHEHFTDFNVTSALFW,2.92
6,MNLHVYISEHEHFTDFNLTSALFW,2.01
7,MNLHVYISEHEHFTDFNSTSALFW,2.46
8,MNLHVYISEHEHFTDFNRTSALFW,3.55
9,MNLHVYISEHEHFTDFNQTSALFW,5.84
10,MNLHVYISEHEHFTDFNTTSALFW,1.84
11,MNLHVYISEHEHFTDFNWTSALFW,2.76
12,MNLHVYISEHEHFTDFNHTSALFW,3.29
13,MNLHVYISEHEHFTDFNETSALFW,1.97
14,MNLHVYISEHEHFTDFNATSATFW,3.54
15,MNLHVYISEHEHFTDFNATSARFW,1.1
16,MNLHVYISEHEHFTDFNATSAYFW,2.2
17,MNLHVYISEHEHFTDFNATSAGFW,4
18,MNLHVYISEHEHFTDFNATSASFW,1.97
19,MNLHVYISEHEHFTDFNATSAHFW,2.6
20,MNLHVYISEHEHFTDFNATSACFW,4.78
21,MNLHVYISEHEHFTDFNATSAQFW,3.16
22,MNLHVYISEHEHFTDFNATSAAFW,4.09
23,MNLHVYISEHEHFTDFNATSAIFW,1.59
24,MNLHVYISEHEHFTDFNATSALHW,3.78
25,MNLHVYISEHEHFTDFNATSALLW,5.95

row,Variant,protein stability index
1,MNLHVYISEHEHFTDFNATSALEW,1.81
2,MNLHVYISEHEHFTDFNATSALDW,3.62
3,MNLHVYISEHEHFTDFNATSALQW,2.56
4,MNLHVYISEHEHFTDFNATSALVW,2.13
5,MNLHVYISEHEHFTDFNATSALRW,2.46
6,MNLHVYISEHEHFTDFNATSALPW,2.49
7,MNLHVYISEHEHFTDFNATSALYW,5.1
8,MNLHVYISEHEHFTDFNATSALNW,2.46
9,MNLHVYISEHEHFTDFNATSALCW,2.69
10,MNLHVYISEHEHFTDFNATSALIW,3.19
11,MNLHVYISEHEHFTDFNATSALFS,3.64
12,MNLHVYISEHEHFTDFNATSALFT,3.19
13,MNLHVYISEHEHFTDFNATSALFR,2.96
14,MNLHVYISEHEHFTDFNATSALFD,3.34
15,MNLHVYISEHEHFTDFNATSALFL,4.15
16,MNLHVYISEHEHFTDFNATSALFN,2.98
17,MNLHVYISEHEHFTDFNATSALFF,4.25
18,MNLHVYISEHEHFTDFNATSALFK,1.88
19,MNLHVYISEHEHFTDFNATSALFP,2.76
20,MNLHVYISEHEHFTDFNATSALFQ,2.2
21,MNLHVYISEHEHFTDFNATSALFE,4.09
22,MNLHVYISEHEHFTDFNATSALFC,1.83
23,MNLHVYISEHEHFTDFNATSALFY,2.95
24,MNLHVYISEHEHFTDFNATSALFH,1.75
25,MNLHVYISEHEHFTDFNATSALFI,1.93

row,Variant,protein stability index
1,MNLHVYISEHEHFTDFNATSHLFW,2.09
2,MNLHVYISEHEHFTDFNATSNLFW,2.35
3,MNLHVYISEHEHFTDFNATSFLFW,1.95
4,MNLHVYISEHEHFTDFNATSILFW,2.59
5,MNLHVYISEHEHFTDFNATSTLFW,2.67
6,MNLHVYISEHEHFTDFNATSELFW,2.62
7,MNLHVYISEHEHFTDFNATSGLFW,3.69
8,MNLHVYISEHEHFTDFNATSKLFW,3.78
9,MNLHVYISEHEHFTDFNATSCLFW,3.19
10,MNLHVYISEHEHFTDFNATSVLFW,2.4
11,MNLHVYISEHEHFTDFNATTALFW,4.14
12,MNLHVYISEHEHFTDFNATNALFW,3.39
13,MNLHVYISEHEHFTDFNATDALFW,4.08
14,MNLHVYISEHEHFTDFNATAALFW,4.95
15,MNLHVYISEHEHFTDFNATIALFW,2.69
16,MNLHVYISEHEHFTDFNATRALFW,2.1
17,MNLHVYISEHEHFTDFNATCALFW,2.75
18,MNLHVYISEHEHFTDFNATKALFW,3.57
19,MNLHVYISEHEHFTDFNATFALFW,2.51
20,MNLHVYISEHEHFTDFNATEALFW,2.37
21,MNLHVYISEHEHFTDFNATVALFW,2.29
22,MNLHVYISEHEHFTDFNATYALFW,3.45
23,MNLHVYISEHEHFTDFNATMALFW,2.64
24,MNLHVYISEHEHFTDFNATHALFW,4.53
25,MNLHVYISEHEHFTDFNATGALFW,2.69

row,Variant,protein stability index
1,MNLHVYISEHEHFTDFNATQALFW,2.59
2,MNLHVYISEHEHFTDFVATSALFW,2.75
3,MNLHVYISEHEHFTDFRATSALFW,2.01
4,MNLHVYISEHEHFTDFKATSALFW,3.02
5,MNLHVYISEHEHFTDFCATSALFW,2.72
6,MNLHVYISEHEHFTDFSATSALFW,2.44
7,MNLHVYISEHEHFTDFTATSALFW,3.19
8,MNLHVYISEHEHFTDFPATSALFW,3.96
9,MNLHVYISEHEHFTDFIATSALFW,3.01
10,MNLHVYISEHEHFTDFFATSALFW,2.72
11,MNLHVYISEHEHFTDFHATSALFW,2.13
12,MNLHVYISEHEHFTDFGATSALFW,2.38
13,MNLHVYISEHEHFTDFAATSALFW,2.59
14,MNLHVYISEHEHFTDFEATSALFW,3.66
15,MNLHVYISEHEHFTDFNAHSALFW,2.99
16,MNLHVYISEHEHFTDFNAYSALFW,2.08
17,MNLHVYISEHEHFTDFNADSALFW,2.48
18,MNLHVYISEHEHFTDFNANSALFW,3.66
19,MNLHVYISEHEHFTDFNACSALFW,2.92
20,MNLHVYISEHEHFTDFNAESALFW,2.59
21,MNLHVYISEHEHFTDFNAVSALFW,1.89
22,MNLHVYISEHEHFTDFNARSALFW,2.89
23,MNLHVYISEHEHFTDFNAWSALFW,1.67
24,MNLHVYISEHEHFTDFNAISALFW,3.09
25,MNLHVYISEHEHFTDFNAMSALFW,1.52

# Variants of: B2
# Assay: as above
# Conditions: c terminus: a fixed tail appended
row,Variant,protein stability index
1,IIKFQVGLKKLNLHEEEHVLLMAI,3.18
2,VIKFQVGLKKLNLHEEEHVLLMAI,2.24
3,SIKFQVGLKKLNLHEEEHVLLMAI,3.27
4,HIKFQVGLKKLNLHEEEHVLLMAI,2.73
5,DIKFQVGLKKLNLHEEEHVLLMAI,2.9
6,QIKFQVGLKKLNLHEEEHVLLMAI,2.25
7,FIKFQVGLKKLNLHEEEHVLLMAI,2.01
8,NIKFQVGLKKLNLHEEEHVLLMAI,2.01
9,EIKFQVGLKKLNLHEEEHVLLMAI,1.56
10,MIKFQVGLKKLNLHEEEHVLLMAI,3.33
11,LIKWQVGLKKLNLHEEEHVLLMAI,1.5
12,LIKNQVGLKKLNLHEEEHVLLMAI,4.44
13,LIKSQVGLKKLNLHEEEHVLLMAI,3.39
14,LIKQQVGLKKLNLHEEEHVLLMAI,2.09
15,LIKPQVGLKKLNLHEEEHVLLMAI,1.31
16,LIKAQVGLKKLNLHEEEHVLLMAI,2.1
17,LIKMQVGLKKLNLHEEEHVLLMAI,1.75
18,LIKDQVGLKKLNLHEEEHVLLMAI,3.17
19,LIKHQVGLKKLNLHEEEHVLLMAI,1.91
20,LIKTQVGLKKLNLHEEEHVLLMAI,1.48
21,LIKKQVGLKKLNLHEEEHVLLMAI,3.04
22,LIKLQVGLKKLNLHEEEHVLLMAI,4.2

row,Variant,protein stability index
1,LIKCQVGLKKLNLHEEEHVLLMAI,3
2,LIKIQVGLKKLNLHEEEHVLLMAI,3.75
3,LIKRQVGLKKLNLHEEEHVLLMAI,2.72
4,LIKEQVGLKKLNLHEEEHVLLMAI,2.15
5,LIKYQVGLKKLNLHEEEHVLLMAI,2.64
6,LIPFQVGLKKLNLHEEEHVLLMAI,1.89
7,LIQFQVGLKKLNLHEEEHVLLMAI,1.21
8,LIGFQVGLKKLNLHEEEHVLLMAI,3.98
9,LIWFQVGLKKLNLHEEEHVLLMAI,2.91
10,LIDFQVGLKKLNLHEEEHVLLMAI,2.21
11,LITFQVGLKKLNLHEEEHVLLMAI,2.97
12,LIKFWVGLKKLNLHEEEHVLLMAI,3.59
13,LIKFNVGLKKLNLHEEEHVLLMAI,1.79
14,LIKFKVGLKKLNLHEEEHVLLMAI,2.89
15,LIKFDVGLKKLNLHEEEHVLLMAI,4.34
16,LIKFHVGLKKLNLHEEEHVLLMAI,2.65
17,LIKFPVGLKKLNLHEEEHVLLMAI,2.97
18,LIKFFVGLKKLNLHEEEHVLLMAI,2.56
19,LIKFVVGLKKLNLHEEEHVLLMAI,2.77
20,LIKFLVGLKKLNLHEEEHVLLMAI,3.08
21,LIKFQFGLKKLNLHEEEHVLLMAI,3.19
22,LIKFQKGLKKLNLHEEEHVLLMAI,2.01

row,Variant,protein stability index
1,LIKFQTGLKKLNLHEEEHVLLMAI,2.73
2,LIKFQDGLKKLNLHEEEHVLLMAI,1.47
3,LIKFQHGLKKLNLHEEEHVLLMAI,4.18
4,LIKFQNGLKKLNLHEEEHVLLMAI,2.61
5,LIKFQWGLKKLNLHEEEHVLLMAI,1.54
6,LIKFQPGLKKLNLHEEEHVLLMAI,2.85
7,LIKFQGGLKKLNLHEEEHVLLMAI,2.2
8,LIKFQQGLKKLNLHEEEHVLLMAI,1.74
9,LIKFQLGLKKLNLHEEEHVLLMAI,2.91
10,LIKFQMGLKKLNLHEEEHVLLMAI,3.76
11,LIKFQAGLKKLNLHEEEHVLLMAI,2.24
12,LIKFQCGLKKLNLHEEEHVLLMAI,3.2
13,LIKFQSGLKKLNLHEEEHVLLMAI,2.98
14,LIKFQVGIKKLNLHEEEHVLLMAI,3.67
15,LIKFQVGFKKLNLHEEEHVLLMAI,3.06
16,LIKFQVGDKKLNLHEEEHVLLMAI,3.48
17,LIKFQVGHKKLNLHEEEHVLLMAI,2.3
18,LIKFQVPLKKLNLHEEEHVLLMAI,1.3
19,LIKFQVTLKKLNLHEEEHVLLMAI,2.82
20,LIKFQVDLKKLNLHEEEHVLLMAI,2.61
21,LIKFQVSLKKLNLHEEEHVLLMAI,2.46
22,LIKFQVWLKKLNLHEEEHVLLMAI,3.47

row,Variant,protein stability index
1,LIKFQVQLKKLNLHEEEHVLLMAI,3.23
2,LIKFQVYLKKLNLHEEEHVLLMAI,2.11
3,LIKFQVCLKKLNLHEEEHVLLMAI,1.72
4,LIKFQVALKKLNLHEEEHVLLMAI,2.15
5,LIKFQVKLKKLNLHEEEHVLLMAI,2.84
6,LIKFQVHLKKLNLHEEEHVLLMAI,3.58
7,LIKFQVLLKKLNLHEEEHVLLMAI,2.4
8,LIKFQVFLKKLNLHEEEHVLLMAI,1.75
9,LIKFQVMLKKLNLHEEEHVLLMAI,3.9
10,LHKFQVGLKKLNLHEEEHVLLMAI,1.87
11,LMKFQVGLKKLNLHEEEHVLLMAI,3.15
12,LAKFQVGLKKLNLHEEEHVLLMAI,3.06
13,LFKFQVGLKKLNLHEEEHVLLMAI,2.27
14,LRKFQVGLKKLNLHEEEHVLLMAI,4.27
15,LQKFQVGLKKLNLHEEEHVLLMAI,3.14
16,LVKFQVGLKKLNLHEEEHVLLMAI,3
17,LDKFQVGLKKLNLHEEEHVLLMAI,2.05
18,LNKFQVGLKKLNLHEEEHVLLMAI,2.31
19,LTKFQVGLKKLNLHEEEHVLLMAI,2.77
20,LYKFQVGLKKLNLHEEEHVLLMAI,2.93
21,LPKFQVGLKKLNLHEEEHVLLMAI,2.73
22,LLKFQVGLKKLNLHEEEHVLLMAI,3.02

# Source: the supplement of paper PMC10567573
